Experimental data as given in US20250027068.

B1: PRT-336 (protein)
chain: MTITSVWTKGVTPPTPEDFRENNEDVLHAPYVANQGWYDITKTFDGKDNLLCGAATAGNMLHWWFDQNKEEIERYLKKHPEKQKIIFNNQELFDVKAAIDTKDSQTNSKLFDYFRDKAFPGLSARQLGVFPDLVLDMFINGYYLNLGKTQSTDVNRPYQDKDKRGGIFDAVFTRGVQTTLLTARHDLKNKGLNEISDLIKQELTEGKALALSHTYANVRINHVINLWGADFDAEGELIAIYVTDSDANPSIGMKKYFVGRNANGKVAISAKKIEGDNIGAQVLGLFTLSTGQDIWQKLS
B2: PRT-344 (protein)
chain: MTITSVWTKGVTPPTPEDFRENNEDVLHAPYLANQGWYDITKAFDGKDNLLCGAATAGNMLHWWFDQNKEEIERYLKKHPEKQKIIFGNQELFDVKAAIDTKDSQTNSKLFDYFRDKAFPNLSARQLGVMPDLVLDMFINGYYLNLGKTQSTDVNRPYQDKDKRGGIFDAVFTRGDQTTLLTARHDLKNKGLNEISDLIKQELTEGKALALSHTYANVSINHVINLWGADFDAEGELEAIYVTDSDANPSIGMKKYFVGRNAHGKVAISAKKIEGDNIGAQVLGLFTLSTGQDQWQKLS
B3: PRT-352 (protein)
chain: MSQTEDSESLQRLRDIEDFQAEKKMQNVVYTKWLDGVDVKDHDFRKIVDGNSAYYATPLLNGRGFYDINKDFNRDSDKCAAAVAANMFHYWLDINRDNVDRFLRQNPEKHGIIELPDGQLKLSDFLNTYESDHGYRDKSKLFDFISENFNGPVWTDKLLDNYINGYAYNSKYGRTIEDPTKNTSKINFFKEVFNEKILTNNHSIRNQNEFSVLLIEALYTGKAIGLSYGPAGLRHGLGHIISVWGADLDADGNVVAIYVTDSDDKKLTIGDERVGLKRYKISTDDENRLRLTAYEETHNTGGQIRGLWTLDTGKYAWADYFDKTEQTGTDQAEQ
B4: PRT-360 (protein)
chain: MSQTEDSESLQRLRDIEDFQAEKKDQNVVYTKWLDGVDVKDHDFRKIVDGNSAYYATPLLNGRGWYDINKDFNRDSDKCAAAVAANMFHYWLDRNRDNVDRFLRQNPEKHGIIELPDGQLKLSDFLNTYESDDGYRDKSKLFDFISENFNGPVWTDKLLDNYINGYAYNYKYGRTIEDPTKNTSKINFFKEVFNEKILTNNHSIRNQNEFSVLLIEALYTGKAIGLSYGPAGLRHSLGHIISVWGADLDADGNVVAIYVTDSDDKKLTIGDERVGLKRYKISTDDEGRLRLTAYEETHNTGGQVRGLWTLDTGKQAWADYFDKTEQTGTDQAEQ
B5: PRT-368 (protein)
chain: MSQTEDSESLQRLRDIEDFQAEKKDQNVVYTKWLDGVDVKDHDFRKIVDGNIAYYATPLLNGRGWYDINKDFNRDNDKCAAAVAANMFHYWLDRNRDNVDRFLRQNPEKHGIIELPDGQLKLSDFLNTYESDDGYRDKSKLFDFISENFNGPVWTDKLLDNYINGYAYNYKYGRTIEDSTKNTSKINFFKEVFNEKILTNNHSIRNQNEFSVLLIEALYTGKAIGLSYGPAGLRHSLGHIISVWGADLDADGNVVAIYVTDSDDKKLTIGDERVGLKRYKISTDDEGRLRLTAYEETHNTGGQVRGLWTLDTGKQAWADYFDKTEQTGTDQAEQ
B6: PRT-337 (protein)
chain: MTITSVWTKGVTPPTPEDFRKNNEDVLHAPYLANQGWYDITKAFDGKDNLLCGAATAGNMLHWWFDQNKEEIERYLKKHPEKQKIIFNNQELFDVKAAIDTKDSQTNSKLFNYFRDKAFPNLSARQLGVMPDLVLDMFINGYYLNLGKTQSTDVNRPYQDKDKRGGIFDAVFTRGDQTTLLTARHDLKNKGLNEISDLIKQELTEGKALALSHTYANVSINHVINLWGADFDAEGNLEAIYVTDSDANASIGMKKYFVGRNAHGKVAISAKKIEGDNIGAQVLGLFTLSTGQDIWQKLS
B7: PRT-345 (protein)
chain: MTITSVWTKGVTPPTPEDFRENNEDVLHAPYLANQGWYDITKAFDGKDNLLCGAATAGNMLHWWFDQNKEEIERYLKKHPEKQKIIFNNQELFDVKAAIDTKDSQTNSKLFDYFRDKAFPNLSARQLGVMPDLVLDMFINGYYLNLGKTQSTDVNRPYQDKDKRGGIFDAVFTRGDQTTLLTARHDLKNKGLNEISDLIKQELTEGKALALSHTYANVSINHVINLWGADFDAEGELEAIYVTDSDANPSIGMKKYFVGRNAHGKVAISAKKIEGDNIGAQVLGLFTLSTGQDIWQKLS
B8: PRT-353 (protein)
chain: MSQTEDSESLQRLRDIEDFQAEKEMQNVVYTKWLDGVDVKDHDFRKIVDGNSAYYATPLLNGRGWYDINKDFNRDSDKCAAAVAANMFHYWLDINRDNVDRFLRQNPEKHGIIELPDGQLKLSDFLNTYESDHGYRDKSKLFDFISENFNGPVWTDKLLDNYINGYAYNSKYGRTIEDPTKNTSKINFFKEVFNEKILTNNHSIRNQNEFSVLLIEALYTGKAIGLSYGPAGLRHGLGHIISVWGADLDADGNVVAIYVTDSDDKKLTIGDERVGLKRYKISTDDENRLRLTAYEETHNTGGQVRGLWTLDTGKYAWADYFDKTEQTGTDQAEQ
B9: PRT-361 (protein)
chain: MSQTEDSESLQRLRDIEDFQAEKKKQNVVYTKWLDGVDVKDHDFRKIVDGNSAYYATPLLNGRGFYDINKDFNRDSDKCAAAVAANMFHYWLDRNRDNVDRFLRQNPEKHGIIELPDGQLKLSDFLNTYESDDGYRDKSKLFDFISENFNGPVWTDKLLDNYINGYAYNYKYGRTIEDPTKNTSKINFFKEVFNEKILTNNHSIRNQNEFSVLLIEALYTGKAIGLSYGPAGLRHSLGHIISVWGADLDADGNVVAIYVTDSDDKKLTIGDERVGLKRYKISTDDEGRLRLTAYEETHNTGGQIRGLWTLDTGKQAWADYFDKTEQTGTDQAEQ
B10: PRT-369 (protein)
chain: MSQTEDSESLQRLRDIEDFQAEKKDQNVVYTKWLDGVDVKDHDFRKIVDGNIAYYATPLLNGRGLYDINKDFNRDNDKCAAAVAANMFHYWLDRNRDNVDRFLRQNPEKHGIIELPDGQLKLSDFLNTYESDDGYRDKSKLFDFISENFNGPVWTDKLLDNYINGYAYNYKYGRTIEDSTKNTSKINFFKEVFNEKILTNNHSIRNQNELSVLLSEALYTGKAIGLSYGPAGLRHSLGHIISVWGADLDADGNVVAIYVTDSDDKKLTIGDERVGLKRYKISTDDEGRLRLTAYEETHNTGGQVRGLWTLDTGKQAWADYFDKTEQTGTDQAEQ

These proteins were tested against pooled human IgG (human IgG1,2,3 and 4).
With B1 the Enzyme Activity Endpoint Assay (purified): Fab'2 was 50 ng/µL, the Enzyme Activity Endpoint Assay (purified): Fc was 264 ng/µL and the Enzyme Activity Endpoint Assay (purified): IgG was 370 ng/µL. The Enzyme Activity Endpoint Assay (purified): scIgG was 965 ng/µL.
In the case of B2, the Enzyme Activity Endpoint Assay (purified): Fab′2 is reported as 562 ng/µL, the Enzyme Activity Endpoint Assay (purified): Fc is reported as 335 ng/µL and the Enzyme Activity Endpoint Assay (purified): IgG is reported as 0 ng/µL. The Enzyme Activity Endpoint Assay (purified): scIgG was 218 ng/µL.
B3 gave an Enzyme Activity Endpoint Assay (purified): Fab′2 of 229 ng/µL, an Enzyme Activity Endpoint Assay (purified): Fc of 302 ng/µL and an Enzyme Activity Endpoint Assay (purified): IgG of 281 ng/µL. For the same protein, the Enzyme Activity Endpoint Assay (purified): scIgG was 599 ng/µL.
B4 showed an Enzyme Activity Endpoint Assay (purified): Fab′2 of 89 ng/µL, an Enzyme Activity Endpoint Assay (purified): Fc of 241 ng/µL and an Enzyme Activity Endpoint Assay (purified): IgG of 191 ng/µL. For the same protein, the Enzyme Activity Endpoint Assay (purified): scIgG was 684 ng/µL.
B5 gave an Enzyme Activity Endpoint Assay (purified): Fab′2 of 0 ng/µL, an Enzyme Activity Endpoint Assay (purified): Fc of 3 ng/µL and an Enzyme Activity Endpoint Assay (purified): IgG of 0 ng/µL. It also gave an Enzyme Activity Endpoint Assay (purified): scIgG of 0 ng/µL.
B6 gave an Enzyme Activity Endpoint Assay (purified): Fab′2 of 0 ng/µL, an Enzyme Activity Endpoint Assay (purified): Fc of 74 ng/µL and an Enzyme Activity Endpoint Assay (purified): IgG of 38 ng/µL. For the same protein, the Enzyme Activity Endpoint Assay (purified): scIgG was 259 ng/µL.
With B7 the Enzyme Activity Endpoint Assay (purified): Fab′2 was 61 ng/µL, the Enzyme Activity Endpoint Assay (purified): Fc was 248 ng/µL and the Enzyme Activity Endpoint Assay (purified): IgG was 123 ng/µL. The Enzyme Activity Endpoint Assay (purified): scIgG was 772 ng/µL.
With B8 the Enzyme Activity Endpoint Assay (purified): Fab′2 was 101 ng/µL, the Enzyme Activity Endpoint Assay (purified): Fc was 259 ng/µL and the Enzyme Activity Endpoint Assay (purified): IgG was 189 ng/µL. The Enzyme Activity Endpoint Assay (purified): scIgG was 767 ng/µL.
B9 was tested, and the Enzyme Activity Endpoint Assay (purified): Fab′2 was 86 ng/µL, the Enzyme Activity Endpoint Assay (purified): Fc was 243 ng/µL and the Enzyme Activity Endpoint Assay (purified): IgG was 130 ng/µL. It also gave an Enzyme Activity Endpoint Assay (purified): scIgG of 753 ng/µL.
In the case of B10, the Enzyme Activity Endpoint Assay (purified): Fab′2 is reported as 259 ng/µL, the Enzyme Activity Endpoint Assay (purified): Fc is reported as 284 ng/µL and the Enzyme Activity Endpoint Assay (purified): IgG is reported as 123 ng/µL. For the same protein, the Enzyme Activity Endpoint Assay (purified): scIgG was 445 ng/µL.
